Assay results taken from paper PMC5789003, “Structural and functional characterization of shaft, anchor, and tip proteins of the Mfa1 fimbria from the periodontal pathogen Porphyromonas gingivalis” (Scientific Reports, 2018).
Several values for one entry are separate records, joined by “and”; a condition that tells them apart may be missing. Equal entries are not always repeated.

Target: the molecule itself
Assay: SDS-PAGE and immunoblot of partially heat-denatured fimbriae (ladder-like pattern)

Protein	stoichiometry N
Mfa2 (anchor protein of the Mfa1 fimbria), wild type, in P. gingivalis (natural protein, lipidated cysteine (Cys29); disulphide bonds Cys54-Cys285 and Cys298-Cys300) CDKMIYDNYDDCPRGVYVNFYSQTECAENPSYPAEVARLNVYAFDKDGILRSANVFEDVQLSAAKEWLIPLEKDGLYTIFAWGNIDDHYNIGEIKIGETTKQQVLMRLKQDGKWATNIDGTTLWYATSPVVELKNMEDGADQYIHTRANLREYTNRVTVSVDSLPHPENYEIKLASSNGSYRFDGTVAKADSTYYPGETKVVGDSTCRAFFTTLKLESGHENTLSVTHKPTGREIFRTDLVGAILSSQYAQNINLRCINDFDIRLVAHHCNCPDDTYVVVQIWINGWLIHSYEIEL	2 and 3
Mfa2 C54A (natural protein, source: P. gingivalis Δmfa2Δfim complemented with mfa2C54A, whole cell lysate) CDKMIYDNYDDCPRGVYVNFYSQTEAAENPSYPAEVARLNVYAFDKDGILRSANVFEDVQLSAAKEWLIPLEKDGLYTIFAWGNIDDHYNIGEIKIGETTKQQVLMRLKQDGKWATNIDGTTLWYATSPVVELKNMEDGADQYIHTRANLREYTNRVTVSVDSLPHPENYEIKLASSNGSYRFDGTVAKADSTYYPGETKVVGDSTCRAFFTTLKLESGHENTLSVTHKPTGREIFRTDLVGAILSSQYAQNINLRCINDFDIRLVAHHCNCPDDTYVVVQIWINGWLIHSYEIEL	2 and 3
Mfa2 C285A (natural protein, source: P. gingivalis Δmfa2Δfim complemented with mfa2C285A, whole cell lysate) CDKMIYDNYDDCPRGVYVNFYSQTECAENPSYPAEVARLNVYAFDKDGILRSANVFEDVQLSAAKEWLIPLEKDGLYTIFAWGNIDDHYNIGEIKIGETTKQQVLMRLKQDGKWATNIDGTTLWYATSPVVELKNMEDGADQYIHTRANLREYTNRVTVSVDSLPHPENYEIKLASSNGSYRFDGTVAKADSTYYPGETKVVGDSTCRAFFTTLKLESGHENTLSVTHKPTGREIFRTDLVGAILSSQYAQNINLRAINDFDIRLVAHHCNCPDDTYVVVQIWINGWLIHSYEIEL	3 and 2
